From the Immune Epitope Database (IEDB)

The sequences below were run against HLA-A*02:02 (assay: IEDB peptide-MHC binding, cellular MHC/competitive/fluorescence; ≥ and ≤ were set here for values at or beyond the usual limits of such assays). Settings: source organism: Vaccinia virus WR.
AAAKTPVIVV was tested, and the IC50 was 8.04 µM.
Sequence AMHDKKIDI has an IC50 of 17.2 µM.
For DAKRNSKSLV, the IC50 was 13.3 µM.
DIRDKYMEL gave an IC50 of 24.3 µM.
Work on EIKAEMQLKI yielded an IC50 of 16.9 µM.
EILRNYLRL gave an IC50 of 14 µM.
Sequence EIRGVLPEET has an IC50 of 9.6 µM.
With EIVSHLRAST the IC50 was 5.15 µM.
For ELENKKVEYV, the IC50 was 21.4 µM.
Work on ELTSNCTRTT yielded an IC50 of 14.6 µM.
EQYTCNKPYT showed an IC50 of 14 µM.
Work on ETMYLTMKA yielded an IC50 of 7.85 µM.
Work on EVGTNFGTI yielded an IC50 of 5.76 µM.
Work on EVLMSPCRM yielded an IC50 of 6.83 µM.
Sequence EVMPEKRNVV has an IC50 of 20.2 µM.
In the case of FISYNRHNDT, the IC50 is reported as 6.84 µM.
For FIVYGRSNA, the IC50 was 6.09 µM.
FVKKMLPKII showed an IC50 of 11.1 µM.
Sequence GIIITVGML has an IC50 of 8.67 µM.
With GILIYDDNI the IC50 was 11.7 µM.
GIRCVSNLDI gave an IC50 of 20.1 µM.
Sequence HQRRLVKLL has an IC50 of 15.9 µM.
IAMLKSKNI gave an IC50 of 37.7 µM.
IIELPYVGDT showed an IC50 of 13.7 µM.
For IIYSKAGNI, the IC50 was 9.76 µM.
ILSEKRKDTI was tested, and the IC50 was 44 µM.
For ITNILGGVL, the IC50 was 7.38 µM.
KLYIALCKVT was tested, and the IC50 was 7.11 µM.
Work on KTKISVEKI yielded an IC50 of 7.6 µM.
In the case of LANERYRSA, the IC50 is reported as 31.3 µM.
Sequence LISSDGARVI has an IC50 of 7.18 µM.
In the case of LMLHNPTSET, the IC50 is reported as 39.3 µM.
For LMSDNPKAST, the IC50 was 8.88 µM.
For LVITYCLVT, the IC50 was 6.98 µM.
Sequence MISTYPGNT has an IC50 of 5.49 µM.
NISFKSINKV showed an IC50 of 20.3 µM.
NLERETGLSA was tested, and the IC50 was 17.6 µM.
In the case of NMWREILSNT, the IC50 is reported as 6.07 µM.
Sequence NTKSDNIINI has an IC50 of 30.8 µM.
For NTLISSDGA, the IC50 was 7.41 µM.
With PTSETMYLT the IC50 was 10.4 µM.
For QMYRKFSRCT, the IC50 was 25.7 µM.
In the case of QVKDNIISRT, the IC50 is reported as 17.8 µM.
Sequence RLLKNMKQCT has an IC50 of 46.8 µM.
RTRLYDYFT showed an IC50 of 7.1 µM.
With RVNHAKYMVT the IC50 was 33.6 µM.
Sequence SLETVKMGA has an IC50 of 11.2 µM.
With SMTSDSKSI the IC50 was 8.35 µM.
SMYTRLRQDT gave an IC50 of 6.56 µM.
STKADAVVA gave an IC50 of 8.19 µM.
SVDAMIHKT showed an IC50 of 5.02 µM.
For SVKYYGRST, the IC50 was 6.79 µM.
SVNASKTINA was tested, and the IC50 was 17.3 µM.
With TAGNKVDVDI the IC50 was 11 µM.
TAIRAGYSIV was tested, and the IC50 was 6.82 µM.
With TVEFDRDKVV the IC50 was 16.2 µM.
VIRHVDGKI gave an IC50 of 8.55 µM.
YVSSSYKDI showed an IC50 of 5.04 µM.

What follows are sequences tested against HLA-A*02:01 in the same assay as above. Settings: source organism: Influenza A virus.
Sequence AAGAAVKGV has an IC50 of 56.8 µM.
Work on AIRGQYSGFV yielded an IC50 of 12.9 µM.
Work on FLKVPAQNA yielded an IC50 of 11.3 µM.
With GADINLMPI the IC50 was 11.9 µM.
HANNSTDTV gave an IC50 of 24 µM.
With LAKSVFNSL the IC50 was 30.9 µM.
Sequence NALLKHRFEII has an IC50 of 22.7 µM.
In the case of NTSQRGIL, the IC50 is reported as 6.68 µM.
Work on RAMAWTVV yielded an IC50 of 7.6 µM.
Work on RASAGQISV yielded an IC50 of 19.6 µM.
RTEIIRMMESA showed an IC50 of at least 70 µM.

Same assay, conditions: source organism: Vaccinia virus WR
With AAAKTPVIVV the IC50 was 44.3 µM.
AMHDKKIDI was tested, and the IC50 was 8.85 µM.
DAKRNSKSLV showed an IC50 of 30.3 µM.
In the case of DIRDKYMEL, the IC50 is reported as 10.3 µM.
EIKAEMQLKI gave an IC50 of 27.5 µM.
In the case of EILRNYLRL, the IC50 is reported as 10.5 µM.
Sequence EIRGVLPEET has an IC50 of 30.5 µM.
In the case of EIVSHLRAST, the IC50 is reported as at least 70 µM.
With ELENKKVEYV the IC50 was 35.5 µM.
For ELTSNCTRTT, the IC50 was 15.2 µM.
EQYTCNKPYT showed an IC50 of at least 70 µM.
For ETMYLTMKA, the IC50 was 19.1 µM.
EVGTNFGTI gave an IC50 of 20.1 µM.
EVLMSPCRM gave an IC50 of 27.9 µM.
Sequence EVMPEKRNVV has an IC50 of 44.3 µM.
FISYNRHNDT was tested, and the IC50 was 36.3 µM.
Work on FIVYGRSNA yielded an IC50 of 16.9 µM.
In the case of FVKKMLPKII, the IC50 is reported as 32.7 µM.
Sequence GIIITVGML has an IC50 of 6.56 µM.
GILIYDDNI gave an IC50 of 11.3 µM.
Work on GIRCVSNLDI yielded an IC50 of at least 70 µM.
In the case of HQRRLVKLL, the IC50 is reported as 26.6 µM.
IAMLKSKNI was tested, and the IC50 was 46.7 µM.
For IIELPYVGDT, the IC50 was 46.8 µM.
IIYSKAGNI showed an IC50 of 50.7 µM.
ILSEKRKDTI showed an IC50 of at least 70 µM.
ITNILGGVL gave an IC50 of at least 70 µM.
KTKISVEKI was tested, and the IC50 was 26.9 µM.
In the case of LANERYRSA, the IC50 is reported as 49.1 µM.
LISSDGARVI showed an IC50 of 12.7 µM.
LMLHNPTSET showed an IC50 of 8.92 µM.
Sequence LMSDNPKAST has an IC50 of 8.98 µM.
MISTYPGNT was tested, and the IC50 was 22.1 µM.
NISFKSINKV gave an IC50 of 14.5 µM.
With NLERETGLSA the IC50 was 17.5 µM.
NTKSDNIINI gave an IC50 of at least 70 µM.
PTSETMYLT was tested, and the IC50 was 34.9 µM.
QMYRKFSRCT gave an IC50 of 27.1 µM.
For QVKDNIISRT, the IC50 was 40.9 µM.
RLLKNMKQCT gave an IC50 of 9.76 µM.
RTRLYDYFT was tested, and the IC50 was 49.5 µM.
Sequence RVNHAKYMVT has an IC50 of 39 µM.
Work on SLETVKMGA yielded an IC50 of 26.1 µM.
SMTSDSKSI gave an IC50 of 34.8 µM.
SMYTRLRQDT was tested, and the IC50 was 32.9 µM.
With STKADAVVA the IC50 was 29.3 µM.
Work on SVDAMIHKT yielded an IC50 of 24.1 µM.
SVKYYGRST gave an IC50 of 25.9 µM.
Sequence SVNASKTINA has an IC50 of 19.3 µM.
In the case of TAGNKVDVDI, the IC50 is reported as 40.2 µM.
Work on TAIRAGYSIV yielded an IC50 of 26.2 µM.
For TVEFDRDKVV, the IC50 was 30.9 µM.
With VIRHVDGKI the IC50 was 43.3 µM.
Work on YVSSSYKDI yielded an IC50 of 31.2 µM.

The sequences below were run against HLA-A*68:02 in the same assay as above. Settings: source organism: Influenza A virus.
AAGAAVKGV was tested, and the IC50 was 26 µM.
AIRGQYSGFV was tested, and the IC50 was 18.4 µM.
With FLKVPAQNA the IC50 was 29 µM.
Sequence LAKSVFNSL has an IC50 of at least 70 µM.
With NALLKHRFEII the IC50 was 12.4 µM.
In the case of NTSQRGIL, the IC50 is reported as at least 70 µM.
Work on RAMAWTVV yielded an IC50 of at least 70 µM.
RASAGQISV gave an IC50 of 8.55 µM.

Same assay, conditions: source organism: Vaccinia virus WR
Work on AAAKTPVIVV yielded an IC50 of 5.25 µM.
AMHDKKIDI was tested, and the IC50 was 8 µM.
With DAKRNSKSLV the IC50 was 12.6 µM.
DIRDKYMEL was tested, and the IC50 was 14.7 µM.
With EIKAEMQLKI the IC50 was 5.12 µM.
EILRNYLRL gave an IC50 of 9.23 µM.
With EIVSHLRAST the IC50 was 6.33 µM.
In the case of ELENKKVEYV, the IC50 is reported as at least 70 µM.
Sequence ELTSNCTRTT has an IC50 of 5.04 µM.
EQYTCNKPYT gave an IC50 of 20.4 µM.
Work on FIVYGRSNA yielded an IC50 of 5.26 µM.
For FVKKMLPKII, the IC50 was 14.1 µM.
Sequence GIIITVGML has an IC50 of 19.6 µM.
Sequence GILIYDDNI has an IC50 of 33.5 µM.
Work on GIRCVSNLDI yielded an IC50 of at least 70 µM.
For HQRRLVKLL, the IC50 was at least 70 µM.
IAMLKSKNI gave an IC50 of 5.87 µM.
For IIELPYVGDT, the IC50 was at least 70 µM.
IIYSKAGNI was tested, and the IC50 was 5.39 µM.
For ILSEKRKDTI, the IC50 was at least 70 µM.
For ITNILGGVL, the IC50 was 9.24 µM.
With KLYIALCKVT the IC50 was 18.6 µM.
For KTKISVEKI, the IC50 was at least 70 µM.
For LANERYRSA, the IC50 was at least 70 µM.
LISSDGARVI showed an IC50 of 17.9 µM.
Sequence LMLHNPTSET has an IC50 of at least 70 µM.
LMSDNPKAST gave an IC50 of at least 70 µM.
Sequence LVITYCLVT has an IC50 of 5.75 µM.
MISTYPGNT showed an IC50 of 14.7 µM.
For NLERETGLSA, the IC50 was 31.3 µM.
In the case of NMWREILSNT, the IC50 is reported as 63.2 µM.
NTLISSDGA was tested, and the IC50 was 25.4 µM.
QMYRKFSRCT gave an IC50 of 48.2 µM.
For QVKDNIISRT, the IC50 was 24.2 µM.
Work on RLLKNMKQCT yielded an IC50 of at least 70 µM.
Sequence RTRLYDYFT has an IC50 of 27.2 µM.
SLETVKMGA gave an IC50 of at least 70 µM.
For SMTSDSKSI, the IC50 was 8.09 µM.
Work on SMYTRLRQDT yielded an IC50 of at least 70 µM.
With SVKYYGRST the IC50 was 30.7 µM.
TAGNKVDVDI gave an IC50 of 9.83 µM.
